Measurements published in patent US20260201029A1 (Janssen / Centocor, published 2026).
Like-named read-outs stand apart in the source and are kept apart here.

Columns and labels:
cyno GPRC5D nanodisc = cyno GPRC5D nanodisc (cynomolgus monkey); assay: SPR, antibody captured by anti-human Fc, GPRC5D-nanodisc injected, 1:1 fit
human GPRC5D nanodisc [1] = target: T1, human GPRC5D nanodisc (human, UniProt Q9NZD1 1-345); assay: as above
T1 construct: Bought reagent; also called GPRC5D-nanodiscs (Acro, #GPD-H52D4)
T1 sequence (Q9NZD1 whole entry): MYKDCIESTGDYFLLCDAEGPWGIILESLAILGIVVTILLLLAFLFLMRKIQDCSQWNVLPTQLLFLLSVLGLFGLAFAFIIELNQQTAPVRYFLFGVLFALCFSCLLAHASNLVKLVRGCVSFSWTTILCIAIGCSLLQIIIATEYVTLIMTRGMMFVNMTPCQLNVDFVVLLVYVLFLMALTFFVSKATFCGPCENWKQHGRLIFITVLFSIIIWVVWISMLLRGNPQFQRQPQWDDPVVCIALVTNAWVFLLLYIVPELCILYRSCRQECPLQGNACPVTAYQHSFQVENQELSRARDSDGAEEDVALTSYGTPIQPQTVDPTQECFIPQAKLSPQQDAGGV

[2] = target: T2, human GPRC5D (G-protein coupled receptor family C group 5 member D) (human, UniProt Q9NZD1 1-345); assay: cell-based or functional assay
T2 sequence (Q9NZD1 whole entry): as above

[3] = target: T2, human GPRC5D (G-protein coupled …); assay: cell-based or functional assay; remark: listed apart in the source
human FcγRIIb/c = target: T3, human FcγRIIb/c (human, UniProt P31994 46-217, limits assumed); assay: SPR, receptor captured by anti-his, antibody injected, steady-state fit
T3 construct: His-tagged (captured on anti-his surface); construct not described; also called hu-RIIb/c; FcgRIIb
T3 sequence (looked up): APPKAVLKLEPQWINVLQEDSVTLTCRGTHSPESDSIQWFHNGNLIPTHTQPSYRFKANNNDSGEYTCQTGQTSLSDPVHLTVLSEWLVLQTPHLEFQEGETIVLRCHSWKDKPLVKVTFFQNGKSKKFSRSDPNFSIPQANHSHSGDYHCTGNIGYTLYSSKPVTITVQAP

cynomolgus FcγRIIa = target: T4, cynomolgus FcγRIIa (cynomolgus); assay: as above
T4 construct: His-tagged (captured on anti-his surface); construct not described; also called cy-RIIa; FcgRIIa

human FcγRIIa = target: T5, human FcγRIIa (human, UniProt P12318 36-218, limits assumed); assay: as above
T5 construct: His-tagged (captured on anti-his surface); construct and allele not described; also called hu-RIIa; FcgRIIa
T5 sequence (looked up): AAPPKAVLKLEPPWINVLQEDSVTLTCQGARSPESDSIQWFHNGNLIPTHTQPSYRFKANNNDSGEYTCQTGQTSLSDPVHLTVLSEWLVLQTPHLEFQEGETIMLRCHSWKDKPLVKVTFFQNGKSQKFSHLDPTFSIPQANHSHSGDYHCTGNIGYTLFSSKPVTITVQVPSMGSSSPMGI

cynomolgus FcγRIIb = target: T6, cynomolgus FcγRIIb (cynomolgus); assay: as above
T6 construct: His-tagged (captured on anti-his surface); construct not described; also called cy-RIIb; FcgRIIb

human GPRC5D nanodisc [4] = target: T1, human GPRC5D nanodisc; assay: SPR, antibody captured by anti-human Fc, GPRC5D-nanodisc injected, 1:1 fit; remark: listed apart in the source
human FcγRI = target: T7, human FcγRI (human, UniProt P12314 16-288, limits assumed); assay: SPR, receptor captured by anti-his, antibody injected, 1:1 fit
T7 construct: His-tagged (captured on anti-his surface); construct not described; also called hu-RI; FcgRI
T7 sequence (P12314 16-288 limits assumed): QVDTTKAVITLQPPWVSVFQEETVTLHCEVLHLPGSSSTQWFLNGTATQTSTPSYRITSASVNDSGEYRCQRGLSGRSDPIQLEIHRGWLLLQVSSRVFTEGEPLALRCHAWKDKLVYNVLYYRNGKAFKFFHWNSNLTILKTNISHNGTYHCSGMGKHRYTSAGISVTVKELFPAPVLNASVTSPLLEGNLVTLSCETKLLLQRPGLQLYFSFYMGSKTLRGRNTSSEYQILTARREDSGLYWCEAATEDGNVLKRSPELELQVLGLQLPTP

[5] = target: T8, human FcγRIIIa 158F allele (human, UniProt P08637 17-208); assay: as above
T8 construct: His-tagged (captured on anti-his surface); construct not described; also called Hu-RIIIaF; FcgRIIIa
T8 sequence (P08637 17-208 limits assumed): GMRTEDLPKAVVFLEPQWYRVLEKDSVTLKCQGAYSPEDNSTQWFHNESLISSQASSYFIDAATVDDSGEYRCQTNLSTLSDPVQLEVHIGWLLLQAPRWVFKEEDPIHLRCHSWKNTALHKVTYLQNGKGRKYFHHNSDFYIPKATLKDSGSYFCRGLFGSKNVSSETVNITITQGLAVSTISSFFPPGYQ

[6] = target: T9, human FcγRIIIa 158V allele (human, UniProt P08637 17-208); assay: as above
T9 construct: His-tagged (captured on anti-his surface); construct not described; The 158V allele differs from the 158F allele at that one position; also called Hu-RIIIa V; Hu-RIIIaV
T9 sequence (P08637 17-208 F176V limits assumed): as the sequence (P08637 17-208 limits assumed) above, with F160V counted along it

cynomolgus FcγRIII = target: T10, cynomolgus FcγRIII (cynomolgus, UniProt Q8SPW2 17-208, limits assumed); assay: as above
T10 construct: His-tagged (captured on anti-his surface); construct not described; also called cy-RIII; FcgRIII
T10 sequence (Q8SPW2 17-208 limits assumed): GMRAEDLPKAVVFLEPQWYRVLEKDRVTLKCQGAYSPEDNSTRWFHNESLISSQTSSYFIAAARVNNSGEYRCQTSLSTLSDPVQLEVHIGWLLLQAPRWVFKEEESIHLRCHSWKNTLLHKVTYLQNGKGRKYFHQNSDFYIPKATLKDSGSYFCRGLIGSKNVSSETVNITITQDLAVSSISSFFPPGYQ

cynomolgus FcγRI = target: T11, cynomolgus FcγRI (cynomolgus); assay: as above
T11 construct: His-tagged (captured on anti-his surface); construct not described; also called cy-RI; FcgRI

[7] = target: T2, human GPRC5D (G-protein coupled …); assay: flow cytometry on MM1.R cells
[8] = target: T2, human GPRC5D (G-protein coupled …); assay: flow cytometry on H929 cells

B1: GC5B1552.AFU (antibody, human IgG1, kappa)
chain: DKTHTCPPCPAPELLGGPSVFLFPPKPEDTLMISRTPEVTCVVVDVSHEDPEVKFNWYVDGVEVHNAKTKPREEQYNSTYRVVSVLTVLHQDWLNGKEYKCKVSNKALPAPIEKTISKAKGQPREPQVYTLPPSREEMTKNQVSLWCLVKGFYPSDIAVEWESNGQPENNYKTTPPVLDSDGSFFLYSKLTVDKSRWQQGNVFSCSVMHEALHNHYRQKSLSLSPGK
heavy: not shown
light: DIQMTQSPSSLSASVGDRVTITCRASQGIRNDLGWYQQKPGKAPKRLIYAASSLQSGVPSRFSGSGSGTEFTLTISSLQPEDFATYYCLQRNTYPLTFGGGTKVEIKRTVAAPSVFIFPPSDEQLKSGTASVVCLLNNFYPREAKVQWKVDNALQSGNSQESVTEQDSKDSTYSLSSTLTLSKADYEKHKVYACEVTHQGLSSPVTKSFNRGEC
notes: expressed in a FUT8 knockout CHO host, so the Fc glycan is afucosylated; also called GC5B1552.AFU.003; GC5B1552.AFU.001
Kd (cyno GPRC5D nanodisc): 1880 nM
koff (cyno GPRC5D nanodisc): 0.0179 s⁻¹
kon (cyno GPRC5D nanodisc): 9520 M⁻¹ s⁻¹
Kd (human GPRC5D nanodisc [1]): 77 nM
koff (human GPRC5D nanodisc [1]): 0.00169 s⁻¹
kon (human GPRC5D nanodisc [1]): 22000 M⁻¹ s⁻¹
ADCC EC50 (nM), CD138+ MM patient plasma cells, Sample 1 [2]: 0.007 nM
ADCC EC50 (nM), CD138+ MM patient plasma cells, Sample 2 [2]: 0.09 nM
ADCC EC50 (nM), CD138+ MM patient plasma cells, Sample 6 [2]: 0.04 nM
ADCC EC50 (nM), CD138+ MM patient plasma cells, Sample 17 [2]: 0.64 nM
CDC EC50 (nM), CD138+ MM patient plasma cells, Sample 6 [2]: 40.5 nM
CDC EC50 (nM), CD138+ MM patient plasma cells, Sample 17 [2]: 35.5 nM
ADCC EC50, AMO-1 cells, primary healthy donor human NK cells [3]: 1.2 nM
ADCC EC50, H929 cells, primary healthy donor human NK cells [3]: 0.04 nM
ADCC EC50, MM.1R cells, primary healthy donor human NK cells [3]: 0.005 nM
ADCP EC50, H929 cells, M1-macrophages [3]: 0.05 nM
ADCP EC50, MM.1R cells, M1-macrophages [3]: 0.05 nM
CDC EC50, AMO-1 cells, CellTiter-Glo, 40% human serum [3]: 35.3 nM
CDC EC50, JIM-3 cells, CellTiter-Glo, 40% human serum [3]: 13.1 nM
CDC EC50, MM.1R cells, CellTiter-Glo, 40% human serum [3]: 8.77 nM
Fold increase in binding (vs wt IgG1 control) (human FcγRIIb/c): 1 fold
Kd (human FcγRIIb/c): 11600 nM
Fold increase in binding (vs wt IgG1 control) (cynomolgus FcγRIIa): 0.9 fold
Kd (cynomolgus FcγRIIa): 8820 nM
Fold increase in binding (vs wt IgG1 control) (human FcγRIIa): 2.5 fold
Kd (human FcγRIIa): 3710 nM
Fold increase in binding (vs wt IgG1 control) (cynomolgus FcγRIIb): 0.8 fold
Kd (cynomolgus FcγRIIb): 5400 nM
Kd (human GPRC5D nanodisc [4]): 84 nM
koff (human GPRC5D nanodisc [4]): 0.00148 s⁻¹
kon (human GPRC5D nanodisc [4]): 18000 M⁻¹ s⁻¹
Fold increase in binding (vs wt IgG1 control) (human FcγRI): 2.2 fold
Kd (human FcγRI): 1.3 nM
koff (human FcγRI): 0.000738 s⁻¹
kon (human FcγRI): 567000 M⁻¹ s⁻¹
Fold increase in binding (vs wt IgG1 control) [5]: 50.7 fold
Kd [5]: 75 nM
koff [5]: 0.167 s⁻¹
kon [5]: 2.24e+06 M⁻¹ s⁻¹
Fold increase in binding (vs wt IgG1 control) [6]: 111 fold
Kd [6]: 8.1 nM
koff [6]: 0.0232 s⁻¹
kon [6]: 2.85e+06 M⁻¹ s⁻¹
Fold increase in binding (vs wt IgG1 control) (cynomolgus FcγRIII): 33.2 fold
Kd (cynomolgus FcγRIII): 11.9 nM
koff (cynomolgus FcγRIII): 0.034 s⁻¹
kon (cynomolgus FcγRIII): 2.86e+06 M⁻¹ s⁻¹
Fold increase in binding (vs wt IgG1 control) (cynomolgus FcγRI): 1.5 fold
Kd (cynomolgus FcγRI): 1 nM
koff (cynomolgus FcγRI): 0.000659 s⁻¹
kon (cynomolgus FcγRI): 647000 M⁻¹ s⁻¹

B2: GC5B1552 (antibody)
chain: B1 chain
heavy: not shown
light: B1 light
notes: Monovalent JAWA (K248E/T437R) antibody as named without the .AFU suffix
EC50 [7]: 3.2 nM
EC50 [8]: 1.3 nM
